Literature values, collected in article PMC7322545.

Columns and labels:
[1] = target: CCL3 (Homo sapiens) (UniProt P10147)
[2] = target: CCL4 (Homo sapiens) (UniProt P13236)
[3] = target: CCL18 (Homo sapiens) (UniProt P55774)

Measured: Kd

Sequence of UniProt P55774 (P55774 24-89): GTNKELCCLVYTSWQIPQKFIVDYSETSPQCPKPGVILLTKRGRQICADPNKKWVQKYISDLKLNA
Sequence of UniProt P10147 (P10147 24-92): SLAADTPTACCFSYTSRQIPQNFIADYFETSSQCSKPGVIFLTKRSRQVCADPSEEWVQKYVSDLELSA
Sequence of UniProt P13236 (P13236 24-92): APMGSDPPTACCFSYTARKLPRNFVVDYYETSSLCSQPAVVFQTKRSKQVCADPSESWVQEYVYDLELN

EVA-1 (from UniProt P0C8E7)
< 5 nM: all assays above
